Results reported in PMC5551697 (The Journal of Cell Biology, 2017).

T1: reconstituted Tda2–Aim21 complex (GST-Aim21–His-Tda2 complex) (S. cerevisiae, UniProt P40563 1-679; P40045 1-126)
T1 sequence (looked up) 1: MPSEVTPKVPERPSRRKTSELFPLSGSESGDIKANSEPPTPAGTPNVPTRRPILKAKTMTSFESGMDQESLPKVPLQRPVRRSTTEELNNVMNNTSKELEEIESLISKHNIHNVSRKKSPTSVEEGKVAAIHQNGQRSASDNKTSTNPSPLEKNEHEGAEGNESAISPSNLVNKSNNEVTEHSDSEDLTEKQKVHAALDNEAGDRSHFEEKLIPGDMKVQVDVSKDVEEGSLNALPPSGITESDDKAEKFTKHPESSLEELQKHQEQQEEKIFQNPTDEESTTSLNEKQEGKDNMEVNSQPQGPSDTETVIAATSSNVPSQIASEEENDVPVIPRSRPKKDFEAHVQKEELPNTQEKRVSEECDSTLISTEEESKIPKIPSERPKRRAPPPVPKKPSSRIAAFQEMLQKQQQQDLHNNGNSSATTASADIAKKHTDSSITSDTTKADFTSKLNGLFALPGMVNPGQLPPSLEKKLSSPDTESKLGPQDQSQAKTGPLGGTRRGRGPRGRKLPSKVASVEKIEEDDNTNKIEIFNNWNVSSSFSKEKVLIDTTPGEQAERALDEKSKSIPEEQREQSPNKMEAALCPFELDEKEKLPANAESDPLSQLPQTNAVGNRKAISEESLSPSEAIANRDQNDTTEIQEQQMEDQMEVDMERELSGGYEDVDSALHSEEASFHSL
T1 sequence (looked up) 2: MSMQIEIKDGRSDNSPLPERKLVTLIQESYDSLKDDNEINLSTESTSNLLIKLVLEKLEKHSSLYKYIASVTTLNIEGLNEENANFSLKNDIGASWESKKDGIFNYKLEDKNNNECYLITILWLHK

T2: GST-Aim21 (S. cerevisiae, UniProt P40563 1-679)
T2 sequence (looked up): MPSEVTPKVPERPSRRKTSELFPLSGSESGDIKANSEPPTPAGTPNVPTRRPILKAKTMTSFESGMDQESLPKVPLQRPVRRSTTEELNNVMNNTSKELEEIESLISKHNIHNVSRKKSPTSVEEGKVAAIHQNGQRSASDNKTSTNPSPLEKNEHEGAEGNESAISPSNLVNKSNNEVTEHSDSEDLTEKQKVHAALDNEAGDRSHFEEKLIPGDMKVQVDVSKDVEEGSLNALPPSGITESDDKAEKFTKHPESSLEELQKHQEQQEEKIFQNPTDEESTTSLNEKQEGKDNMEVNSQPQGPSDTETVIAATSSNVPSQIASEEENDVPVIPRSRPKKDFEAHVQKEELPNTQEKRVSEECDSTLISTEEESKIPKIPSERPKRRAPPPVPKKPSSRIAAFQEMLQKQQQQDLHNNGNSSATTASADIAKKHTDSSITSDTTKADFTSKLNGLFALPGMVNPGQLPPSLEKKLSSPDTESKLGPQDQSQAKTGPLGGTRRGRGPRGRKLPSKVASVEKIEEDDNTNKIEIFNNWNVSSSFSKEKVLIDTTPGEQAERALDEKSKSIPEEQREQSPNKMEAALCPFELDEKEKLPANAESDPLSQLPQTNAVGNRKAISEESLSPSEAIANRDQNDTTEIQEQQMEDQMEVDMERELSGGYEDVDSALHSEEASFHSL


Assays:
[1] = target: T1, reconstituted Tda2–Aim21 complex …; test: pull-down
[2] = target: T2, GST-Aim21; test: pull-down
[3] = target: the molecule itself; test: AUC

binding result [1]	binding result [2]	Binder	stoichiometry N [3]
binds	–	actin-capping protein carrying a 6His-tag in its Cap1 subunit (His-Cap1/Cap2 dimer) (complex, S. cerevisiae) chain 1: MSSSKFEEVINKIINDSPPGELREVYDDLIKITSENSKNTILDAIENYNVQNCIPIEVNGNSVIISKYNKEGAKFFDPVNSVIFSVNHLERKGLDIEPYEFTHAKIEKGQLKELHDKLHEYLLQSFPGDVSFAVYPVPEEISKISIIIVSTKYNPNNFWNGHWRSSYIYDLETRELSGQISTQVHYYEDGNVSFQSGKDINQSNVDDVVCTIRDIETNFENDLDLSFFDLNEKQFKALRRRLPVTRSKINWGSAIGSYRLGKNAAEGK chain 2: MSDAQFDAALDLLRRLNPTTLQENLNNLIELQPNLAQDLLSSVDVPLSTQKDSADSNREYLCCDYNRDIDSFRSPWSNTYYPELSPKDLQDSPFPSAPLRKLEILANDSFDVYRDLYYEGGISSVYLWDLNEEDFNGHDFAGVVLFKKNQSDHSNWDSIHVFEVTTSPSSPDSFNYRVTTTIILHLDKTKTDQNSHMMLSGNLTRQTEKDIAIDMSRPLDVIFTSHVANLGSLIEDIESQMRNLLETVYFEKTRDIFHQTKNAAIASSAEEANKDAQAEVIRGLQSL	–
–	binds	recombinant 6-histidine-tagged Tda2 (natural protein, S. cerevisiae, UniProt P40045 1-126, looked up) MSMQIEIKDGRSDNSPLPERKLVTLIQESYDSLKDDNEINLSTESTSNLLIKLVLEKLEKHSSLYKYIASVTTLNIEGLNEENANFSLKNDIGASWESKKDGIFNYKLEDKNNNECYLITILWLHK	2
